{"source": "patent US20180119166", "proteins": {"B1": {"name": "6x-histidine-fused LOS4 (LOS4-His) (protein)", "chain": "MADTVEKVPTVVESSSSSTVEASNSAEKTEPTTEKKKWGDVEDDDDEEEAVSELNSLSIKEEEKPDSILEEPEDSNIKAVTSGDTPYTSASRFEDLNLSPELMKGLYVEMKFEKPSKIQAISLPMIMTPPHKHLIAQAHNGSGKTTCFVLGMLSRVDPTLREPQALCICPTRELANQNMEVLQKMGKFTGITAELAVPDSTRGAPAATRGAPVSAHVVIGTPGTLKKWMAFKRLGLNHLKILVFDEADHMLATDGFRDDSLKIMKDIGRVNPNFQVLLFSATFNETVKDFVARTVKDPNQLFVKREDLALDSVKQYKVVCPKEQNKIEVIKDQIMELGDIGQTIIFVKTKASAQKVHKALAEMGYDVTSVHGNLTESDRDKIVKEFKECLTQVLIATDVIARGFDQQRVNLVVNYNLPTKYETGEPDYEVYLHRVGRAGRFGRKGAVFNLLLDDGWDKEVMEKIEKYFEANVKEIKSWNSEEEYKSALKEAGLLDEHHHHHH"}}, "biological_target": "T1, MBP fusion protein of the carboxyl-terminal domain of Gle1 (MBP-Gle1C; amino acid residues 244-611)", "T1 chain": "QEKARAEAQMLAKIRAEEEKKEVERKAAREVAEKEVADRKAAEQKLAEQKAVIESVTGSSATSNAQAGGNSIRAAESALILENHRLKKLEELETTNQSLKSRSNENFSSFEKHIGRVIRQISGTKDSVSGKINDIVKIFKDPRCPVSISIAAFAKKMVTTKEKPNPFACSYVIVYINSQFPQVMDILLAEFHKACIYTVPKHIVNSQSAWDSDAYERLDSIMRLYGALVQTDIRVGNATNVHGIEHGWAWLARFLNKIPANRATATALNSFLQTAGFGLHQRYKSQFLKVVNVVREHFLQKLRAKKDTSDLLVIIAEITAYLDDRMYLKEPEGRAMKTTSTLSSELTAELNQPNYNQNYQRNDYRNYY", "data": [{"protein": "B1", "values": [{"measurement": "apparent kcat of LOS4-His with MBP-Gle1C (2 µM MBP-Gle1C, 1 µM LOS4-His)", "result": "the apparent kcat values for LOS4-His alone and LOS4-His with MBP-Gle1C were calculated to be 0.267 and 0.565 sec^-1, respectively"}, {"measurement": "fold increase in the overall catalytic rate of LOS4 (kcat against LOS4-His alone, 0.267 sec^-1)", "result": "an approximately two-fold increase in the overall catalytic rate of LOS4 by Gle1"}]}]}
